Here are results for 72 sequences from the supplement of paper PMC10567573.

± gives the standard deviation.

The nature of the series: protein stability index of a GFP-peptide fusion (GPS, HEK-293T) (PSI 1-6); higher = more stable.
Setting [1] is: treatment: DMSO, c terminus: a fixed tail appended.
Setting [2] is: treatment: MLN4924 1 uM, 8 h, c terminus: a fixed tail appended.
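Further: 24-mer peptide tiles fused after GFP, lentivirally expressed, FACS-sorted into six equal bins by GFP/DsRed ratio, decoded by Illumina sequencing, PSI is the read-weighted mean bin number.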

HLEINPDHPIVETLRQKAEADKND [HSP90AB1]: the protein stability index was determined as 5.58 ± 0.2 under setting [1] and 5.56 ± 0.1 under setting [2].
For HLPWQYHAGQGGLFYSAEVEMLCD [CCDC3] the same measures were 2.94 ± 0.44 and 2.52 ± 0.2.
Turning to HMAKERAHSTASHSSSNSEDTEM [PDZK1], the protein stability index is, setting by setting: (treatment: DMSO, c terminus: native) 5.48 ± 0.26; (treatment: MLN4924 1 uM, 8 h, c terminus: native) 5.39 ± 0.27.
HNCVDLMQAAEVFSQKHFPEVVQH [KLHL12] had a protein stability index under setting [1] of 3.17 ± 0.16 and a protein stability index under setting [2] of 3.14 ± 0.38.
The like results for HNRKVLTIFSASNYYEVGSNRGAY [PPEF2] were, in that order, 2.44 ± 0.28 and 2.46 ± 0.24.
Consider HPAATALHAELCQAGSSQGLSLCQ [LPCAT4], for which the protein stability index is, setting by setting: under setting [1], 4.22 ± 0.29; under setting [2], 4.13 ± 0.16.
For HPIEEAAEEHREKLLKQMRILWKK [TRIM43] the same measures were 3.45 ± 0.39 and 3.7 ± 0.58.
The like results for HPLAYGMVGPLAQDPQSPMAGLRW [POMT2] were, in that order, 2.85 ± 0.39 and 2.77 ± 0.18.
For HQDVDLVCINLPPPLTRQIAVKTL [GFOD1] the same measures were 2.47 ± 0.33 and 2.53 ± 0.27.
On to HRQETVDCLKKFNARRKLKGAILT [CAMK2D], for which the protein stability index under setting [1] was found to be 2.69 ± 0.52 and the protein stability index under setting [2] was found to be 2.71 ± 0.22.
As to HSEKMAQYLEEERHMREENLRLQR [CCDC6], the protein stability index runs as follows: under setting [1], 4.91 ± 0.07; under setting [2], 4.56 ± 0.25.
Regarding HSGYDFGYLIKILTNSNLPEEELD [CNOT7], the protein stability index came out at 2.27 ± 0.19 under setting [1] and 2.48 ± 0.3 under setting [2].
As to HSLERAGSKQYSAAIAFTLALFSH [SMG5], the protein stability index is, setting by setting: under setting [1], 2.48 ± 0.41; under setting [2], 2.49 ± 0.44.
For IAVLPRYVEIRTFEPRLLVQSIEL [VPS39] the same measures were 2.97 ± 0.57 and 2.88 ± 0.38.
Take IDEYCVQQLKEFDGKSLVSVTKEG [HSP90AB1]: the protein stability index reads like this: under setting [1], 5.19 ± 0.25; under setting [2], 4.99 ± 0.14.
For IDGVATTRYSVAGLSPYSDYEFRV [PTPRD] the same measures were 2.02 ± 0.24 and 2.02 ± 0.29.
For IEGAPEVTMSSLFKHILRTEGAFG [SLC25A25] the same measures were 2.31 ± 0.39 and 2.63 ± 0.13.
The like results for IFCIKRFTKNNFFVEKNPTIVNFP [USP39] were, in that order, 3.02 ± 0.74 and 2.38 ± 0.76.
Turning to IFLFQDILVLTRPVTRNERHSYQV [NET1], the protein stability index is 2.58 ± 0.28 under setting [1] and 2.27 ± 0.27 under setting [2].
The like results for IGLRLVLEYLYTANVTLSLDTVEE [KLHL14] were, in that order, 2.96 ± 0.5 and 3.02 ± 0.47.
The like results for IGNLVKILHGTRGELLLDVAWHPV [RBBP5] were, in that order, 2.72 ± 0.41 and 2.65 ± 0.43.
Consider IGRAAGTGFTVNVAWNGPRMGDAD [HDAC6], for which the protein stability index is 3.02 ± 0.28 under setting [1] and 3.15 ± 0.32 under setting [2].
The like results for IHAYNLGTNAWEEIATKPHEKIGF [KLHDC10] were, in that order, 2.48 ± 0.15 and 2.57 ± 0.54.
For IHPKNPHAPTIHFNYRYFEVEEAD [CPOX] the same measures were 3.75 ± 0.18 and 3.88 ± 0.17.
The like results for IKELYENFCKHNGSKNVFSTFRTP [ATL3] were, in that order, 2.24 ± 0.36 and 2.29 ± 0.39.
For IKQIQQLFEEILSNSRQLKWLSCG [FBXO33], the protein stability index is, setting by setting: under setting [1], 3.57 ± 1.6; under setting [2], 1.94 ± 0.58.
The like results for ILELVVLEQFVAILPKELQTWVRD [ZNF24] were, in that order, 2.35 ± 0.54 and 2.45 ± 0.46.
In turn, ILGPSSAYTQTQFHNLRNTLDGYG [NFE2L1] gave a protein stability index under setting [1] of 2.46 ± 0.17 and a protein stability index under setting [2] of 2.33 ± 0.25.
Regarding ILVLTRPVTRNERHSYQVYRQPIP [NET1], the protein stability index runs as follows: under setting [1], 2.33 ± 0.51; under setting [2], 2.11 ± 0.38.
Take IMTVKEDQFSALGLDPCLLEDELD [SLC6A17]: the protein stability index came out at 4.45 ± 0.33 under setting [1] and 4.46 ± 0.3 under setting [2].
For INNGDFEAYTKICDPGLTAFEPEA [CAMK2D] the same measures were 4.08 ± 0.41 and 4.36 ± 0.18.
For INSIIHNPRAPVIIYKQTKGGVQN [CEP70] the same measures were 2.86 ± 0.43 and 3.34 ± 0.51.
Turning to IPAGARDIQIVERKKSADVLALAD [ADAMTSL2], the protein stability index by setting is: under setting [1], 4.68 ± 0.32; under setting [2], 4.86 ± 0.38.
In the case of IPVAMEHQPPYIIAVLPRYVEIRT [VPS39], the protein stability index was 2.6 ± 0.48 under setting [1] and 2.44 ± 0.46 under setting [2].
The like results for IQAINGESTELMTHLEAQNRIKGC [PDLIM4] were, in that order, 4.1 ± 0.19 and 4.15 ± 0.14.
The like results for IRHNLSLNKCFIKVPREKDEPGKG [FOXJ1] were, in that order, 3.78 ± 0.3 and 3.9 ± 0.2.
As for IRLKESINCQLSDPSSTKPGTLLK [TRIM14], the protein stability index runs as follows: under setting [1], 3.28 ± 0.3; under setting [2], 3.48 ± 0.33.
Take IRMIQEEKESTELRAEEIETRVTS [PPFIA4]: the protein stability index was 5.22 ± 0.33 under setting [1] and 5.21 ± 0.38 under setting [2].
The like results for ISCVICNDIMAYMFGFFFGRTPLI [CDS2] were, in that order, 3.31 ± 0.35 and 2.92 ± 0.48.
The like results for ISEKLTLLPTLYEIHSKTTAYSRL [RNF180] were, in that order, 2.51 ± 0.29 and 2.06 ± 0.085.
The like results for ISRAQYNALTLTFQRAMHDYNQAE [STX11] were, in that order, 2.21 ± 0.14 and 2.35 ± 0.14.
As to ISSGVVSIWAQNQVENWSAFAPDF [RBBP5], the protein stability index came to 2.44 ± 0.3 under setting [1] and 2.4 ± 0.25 under setting [2].
For KAEELDRRERELQHAALGGTATRQ [SCAMP3] the same measures were 5.15 ± 0.12 and 5.21 ± 0.22.
Take KAQLLEQAQGQLRELLDRAMREAI [SOAT2]: the protein stability index is, setting by setting: under setting [1], 2.29 ± 0.33; under setting [2], 2.37 ± 0.42.
Regarding KDAPCYESDTDIYETVAAATSEST [DRICH1], the protein stability index by setting is: under setting [1], 5.4 ± 0.15; under setting [2], 5.38 ± 0.1.
For KDGKAFHPTYEEKLKLVALHKQVL [ACBD3] the same measures were 2.68 ± 0.33 and 2.65 ± 0.11.
The like results for KDLDGMDADILGLKKSNSAPSKKA [FBF1] were, in that order, 5.03 ± 0.22 and 5 ± 0.18.
For KEKTAKHFFALKVMSIPDVIRLKQ [PRKX], the protein stability index runs as follows: under setting [1], 2.44 ± 0.23; under setting [2], 2.22 ± 0.2.
The like results for KEKWWDGQRDRKAEHWKHKKEESG [PBXIP1] were, in that order, 4.54 ± 0.21 and 4.66 ± 0.52.
For KERPLVIGHFNTASGVGFILGPVV [MFSD9], the protein stability index by setting is: under setting [1], 3.04 ± 1.1; under setting [2], 2.77 ± 0.51.
The like results for KESAQCVGDEFLNCKLATRAKDFL [SNX8] were, in that order, 3.32 ± 0.2 and 3.21 ± 0.36.
Take KFAGSFYFAITVITTIGYGHAAPG [KCNK9]: the protein stability index is, setting by setting: under setting [1], 3.42 ± 0.31; under setting [2], 3.27 ± 0.17.
Sequence KGGEERKAEGGEEDSLGCLTADTK [IRX6] came in with a protein stability index under setting [1] of 5.44 ± 0.25 and a protein stability index under setting [2] of 5.52 ± 0.16.
The like results for KGTFKDYVRDRADLNKDKPVIPAA [ETS1] were, in that order, 4.35 ± 0.13 and 4.43 ± 0.16.
Consider KGTILKASVDYIRKLQKEQQRSKD [TFE3], for which the protein stability index runs as follows: under setting [1], 3.41 ± 0.19; under setting [2], 3.79 ± 0.38.
For KILISGLEPSTPYRFLLYGLHEGK [TNXB], the protein stability index runs as follows: under setting [1], 2.75 ± 0.77; under setting [2], 3.54 ± 2.4.
KIMADIRAQYDELARKNREELDKY [KRT18] had a protein stability index under setting [1] of 3.07 ± 0.15 and a protein stability index under setting [2] of 3.19 ± 0.35.
For KINLQGDIVDRGSTNLGVNQAGFT [ADD1] the same measures were 3.74 ± 0.25 and 3.83 ± 0.19.
As to KKFRTKSRTWAGEKSKREMYSRLK [CDC25A], the protein stability index turned out to be 3.05 ± 0.39 under setting [1] and 3.46 ± 0.28 under setting [2].
In the case of KKKCLEWLLNNLMTHQNVELFKEL [GMCL1], the protein stability index reads like this: under setting [1], 2.54 ± 0.17; under setting [2], 2.83 ± 0.78.
The like results for KKKKIGFYFEVCGMMVESVNAKTL [PCDHGA10] were, in that order, 2.28 ± 0.68 and 2.18 ± 0.38.
For KKLHKIQNKAQRQKDLIMKVENLT [TAF7L] the same measures were 3.23 ± 0.17 and 3.37 ± 0.12.
For KKVLKKMLKFLAKGEVPKGSCEDE [ATE1] the same measures were 2.11 ± 0.25 and 2.25 ± 0.47.
As for KLAIIPGGGGTQRLPRAIGMSLAK [AUH], the protein stability index by setting is: under setting [1], 2.79 ± 0.05; under setting [2], 2.88 ± 0.52.
The like results for KLKDLSTVTSLQVPVLKPMDLMVE [PPP2R2C] were, in that order, 3.33 ± 0.31 and 3.43 ± 0.27.
The like results for KLQQLPADFGRLVNLQHLDLLNNK [LRRC59] were, in that order, 2.97 ± 0.27 and 3.01 ± 0.33.
KLQREMERREALCRQLSESESSLE [CCDC6] came in with a protein stability index under setting [1] of 4.68 ± 0.18 and a protein stability index under setting [2] of 4.85 ± 0.16.
On to KMKQLTEETEVLAHEIERLQMEMK [TRIM35], for which the protein stability index turned out to be 4.06 ± 0.55 under setting [1] and 3.63 ± 0.28 under setting [2].
The like results for KNERLWLLDDSKTWWRVRNAANRT [NCK2] were, in that order, 2.31 ± 0.23 and 2.62 ± 0.37.
For KNIFGTPEFVAPEIVNYEPLGLEA [DAPK3] the same measures were 3.95 ± 0.23 and 4.26 ± 0.51.
The like results for KPDGSRHQDVPSQDDSKPTQRQFT [AASDHPPT] were, in that order, 5.44 ± 0.14 and 5.353 ± 0.026.
For the sequence KPHRLGDSEHEPVYRAELVGELNG [PWWP2B], the protein stability index under setting [1] is 5.01 ± 0.13 and the protein stability index under setting [2] is 4.5 ± 0.4.
